Source: paper PMC5138414, “Structural Basis for Redox Regulation of Cytoplasmic and Chloroplastic Triosephosphate Isomerases from Arabidopsis thaliana” (Frontiers in Plant Science, 2016)
Residue numbers refer to the chain shown, from its start. Names may count otherwise.

B1: cTPI-C218S (enzyme, Arabidopsis thaliana, UniProt P48491 1-254, looked up)
chain: MARKFFVGGNWKCNGTAEEVKKIVNTLNEAQVPSQDVVEVVVSPPYVFLPLVKSTLRSDFFVAAQNCWVKKGGAFTGEVSAEMLVNLDIPWVILGHSERRAILNESSEFVGDKVAYALAQGLKVIACVGETLEEREAGSTMDVVAAQTKAIADRVTNWSNVVIAYEPVWAIGTGKVASPAQAQEVHDELRKWLAKNVSADVAATTRIIYGGSVNGGNSKELGGQADVDGFLVGGASLKPEFIDIIKAAEVKKSA
notes: cytoplasmic triosephosphate isomerase, Arabidopsis thaliana, At3g55440, point mutant; Made by site-directed mutagenesis of the cTPI construct; source: E. coli BL21 (DE3) Δtpi, purified (IMAC His-Trap FF, Superdex 75)
B2: cTPI-C13S (enzyme, Arabidopsis thaliana, UniProt P48491 1-254, looked up)
chain: B1 chain with C13S, S218C
notes: as for B1
B3: cTPI-C13S/C218S (enzyme, Arabidopsis thaliana, UniProt P48491 1-254, looked up)
chain: B1 chain with C13S
notes: cytoplasmic triosephosphate isomerase, Arabidopsis thaliana, At3g55440, double mutant; Made by site-directed mutagenesis of the cTPI construct; also called cTPI double mutant; source: E. coli BL21 (DE3) Δtpi, purified (IMAC His-Trap FF, Superdex 75)

Biological target: the molecule itself
Assay: SEC; analytical size-exclusion chromatography, Superdex 75 10/300GL, calibrated with Bio-Rad gel filtration standard, 0.5 mL/min, 100 mM TEA pH 7.4, 10 mM EDTA, 1 mM DTT; dimer of identical subunits

Protein | binding result | stoichiometry N
B1 | binds | –
B2 | – | 2
B3 | – | 2
